Data from paper PMC5624926 (Nature Communications, 2017).

What was measured:
Details in all cases: both partners purified
CD22_(20–687)S = target: T1, CD22_(20–687)S (human, UniProt P20273, N-linked glycans of high mannose type (HEK293S)); experiment: BLI; Octet RED96; CD22_(20–687) forms loaded on Ni-NTA biosensors; Fab in solution 500 to 62.5 nM; 1x PBS pH 7.4, 0.002% Tween, 0.01% BSA; 1:1 fit; triplicate
T1 construct: differs in the glycoform; also called full-length CD22 ECD made in HEK293S (HEK293 Gnt I−/−); source: HEK293 Gnt I−/− (HEK293S), transiently transfected, secreted, purified (Ni-NTA, Superdex 200); not shown: His6, C-terminal, kept

CD22_(20–687)F N231Q = target: T2, CD22_(20–687)F N231Q (human, UniProt P20273, N231Q, N-linked glycans with mature carbohydrates (HEK293F); glycosylation site N231 knocked out); experiment: as above
T2 construct: also called CD22 N231Q mutant; source: HEK293F, transiently transfected, secreted, purified (Ni-NTA, Superdex 200); not shown: His6, C-terminal, kept

CD22_(20–687) = target: T3, CD22_(20–687) (human, UniProt P20273, N-linked glycans; glycoform not stated); experiment: negative-stain electron microscopy; CD22_(20–687) in complex with epratuzumab Fab, 2% uranyl formate stain; 2D class averages and ab initio 3D envelope
T3 construct: also called full-length CD22 ECD; not shown: His6, C-terminal, kept

B1: epratuzumab Fab (Fab, V domains shown)
VH: QVQLVQSGAEVKKPGSSVKVSCKASGYTFTSYWLHWVRQAPGQGLEWIGYINPRNDYTEYNQNFKDKATITADESTNTAYMELSSLRSEDTAFYFCARRDITTFYWGQGTTVTVSS
VL: DIQLTQSPSSLSASVGDRVTMSCKSSQSVLYSANHKNYLAWYQQKPGKAPKLLIYWASTRESGVPSRFSGSGSGTDFTLTISSLQPEDIATYYCHQYLSSWTFGGGTKLEIK
notes: heavy chain of the epratuzumab Fab, gene synthesized by GeneArt; PDB 5VL3, complex with CD22; light chain of the epratuzumab Fab, gene synthesized by GeneArt; Therapeutic anti-CD22 antibody, used as Fab; purified on KappaSelect, so the light chain should be kappa (surmised); source: HEK293F, heavy and light chain co-transfected, purified (KappaSelect, MonoS, Superdex 200)
B1 was tested, and the binding result (CD22_(20–687)S) was “binds”, the “fold improvement in affinity against WT CD22” value (CD22_(20–687)F N231Q) was 6 fold and the “fold increase in on-rate against WT CD22” value (CD22_(20–687)F N231Q) was 25 fold. B1: binds (CD22_(20–687)).
